# Where “and” joins values, the source holds several entries; their conditions need not be identical. Identical values can stand only once.
# B1: Iron-sulfur cluster assembly protein CyaY wild type, P27838 (protein)
# chain: MNDSEFHRLADQLWLTIEERLDDWDGDSDIDCEINGGVLTITFENGSKIIINRQEPLHQVWLATKQGGYHFDLKGDEWICDRSGETFWDLLEQAATQQAGETVSFR
# B2: Frataxin homolog, mitochondrial wild type, Q07540 (protein)
# chain: MIKRSLASLVRVSSVMGRRYMIAAAGGERARFCPAVTNKKNHTVNTFQKRFVESSTDGQVVPQEVLNLPLEKYHEEADDYLDHLLDSLEELSEAHPDCIPDVELSHGVMTLEIPAFGTYVINKQPPNKQIWLASPLSGPNRFDLLNGEWVSLRNGTKLTDILTEEVEKAISKSQ
# B3: Frataxin, mitochondrial wild type, Q16595 (protein)
# chain: MWTLGRRAVAGLLASPSPAQAQTLTRVPRPAELAPLCGRRGLRTDIDATCTPRRASSNQRGLNQIWNVKKQSVYLMNLRKSGTLGHPGSLDETTYERLAEETLDSLAEFFEDLADKPYTFEDYDVSFGSGVLTVKLGGDLGTYVINKQTPNKQIWLSSPSSGPKRYDWTGKNWVYSHDGVSLHELLAAELTKALKTKLDLSSLAYSGKDA
# Conditions: Thermal, CD, whole UniProt chain shown
protein,measurement,setting,value
B1,Tm,"Escherichia coli (strain K12), pH 6, phosphate 20 mM, reversible: yes (>95%)",53.5 °C
same,Tm,"Escherichia coli (strain K12), pH 7, Hepes 10 mM, CaCl2 1 mM, reversible: yes (>95%)",62.7 °C
same,Tm,"Escherichia coli (strain K12), pH 7, Hepes 10 mM, reversible: yes (86%)",61.2 °C
same,Tm,"Escherichia coli (strain K12), pH 7, Hepes 10 mM, reversible: yes (>95%)",50.4 °C
same,Tm,"Escherichia coli (strain K12), pH 7, phosphate 20 mM, reversible: yes (>95%)",53.8 °C
same,Tm,"Escherichia coli (strain K12), pH 7.5, Hepes 10 mM, reversible: yes (86%)",60.5 °C
same,Tm,"Escherichia coli (strain K12), pH 7.5, Hepes 10 mM, reversible: yes (>95%)",54.8 °C and 58.3 °C
same,Tm,"Escherichia coli (strain K12), pH 8, phosphate 20 mM, reversible: yes (>95%)",53.8 °C
same,Tm,"Escherichia coli (strain K12), pH 8, phosphate 200 mM, reversible: yes (>95%)",45.8 °C
B2,Tm,"Saccharomyces cerevisiae (strain ATCC 204508 / S288c), pH 6, phosphate 20 mM, reversible: yes (>95%)",39.9 °C
same,Tm,"Saccharomyces cerevisiae (strain ATCC 204508 / S288c), pH 6, phosphate 150 mM, reversible: yes (>95%)",49 °C
same,Tm,"Saccharomyces cerevisiae (strain ATCC 204508 / S288c), pH 7, Hepes 10 mM, CaCl2 1 mM, reversible: yes (>95%)",51.1 °C
same,Tm,"Saccharomyces cerevisiae (strain ATCC 204508 / S288c), pH 7, Hepes 10 mM, CaCl2 150 mM, reversible: yes (>95%)",52.9 °C
same,Tm,"Saccharomyces cerevisiae (strain ATCC 204508 / S288c), pH 7, Hepes 10 mM, NaCl 150 mM, reversible: yes (>95%)",44.6 °C
same,Tm,"Saccharomyces cerevisiae (strain ATCC 204508 / S288c), pH 7, Hepes 10 mM, NaF 150 mM, reversible: yes (>95%)",44.8 °C
same,Tm,"Saccharomyces cerevisiae (strain ATCC 204508 / S288c), pH 7, phosphate 150 mM, reversible: yes (>95%)",48.6 °C and 53.6 °C
same,Tm,"Saccharomyces cerevisiae (strain ATCC 204508 / S288c), pH 7.2, Hepes 10 mM, NaF 150 mM, reversible: yes (>95%)",46.9 °C
same,Tm,"Saccharomyces cerevisiae (strain ATCC 204508 / S288c), pH 7.2, Hepes 10 mM, reversible: No",44.8 °C
same,Tm,"Saccharomyces cerevisiae (strain ATCC 204508 / S288c), pH 7.2, Hepes 10 mM, reversible: yes (47%)",42.3 °C
same,Tm,"Saccharomyces cerevisiae (strain ATCC 204508 / S288c), pH 7.2, Hepes 10 mM, reversible: yes (86%)",37.9 °C
same,Tm,"Saccharomyces cerevisiae (strain ATCC 204508 / S288c), pH 7.4, Hepes 10 mM, reversible: yes (>95%)",35.5 °C
same,Tm,"Saccharomyces cerevisiae (strain ATCC 204508 / S288c), pH 8, phosphate 150 mM, reversible: yes (>95%)",45.9 °C
B3,Tm,"Homo sapiens, pH 6, phosphate 150 mM, reversible: yes (>95%)",64.9 °C
same,Tm,"Homo sapiens, pH 7, Hepes 10 mM, CaCl2 1 mM, reversible: yes (>95%)",65.9 °C
same,Tm,"Homo sapiens, pH 7, Hepes 10 mM, NaCl 150 mM, reversible: yes (>95%)",65 °C
same,Tm,"Homo sapiens, pH 7, Hepes 10 mM, reversible: yes (88%)",68.6 °C
same,Tm,"Homo sapiens, pH 7, phosphate 20 mM, reversible: yes (>95%)",60 °C
same,Tm,"Homo sapiens, pH 7, phosphate 150 mM, reversible: yes (>95%)",65.7 °C

# Source: FireProtDB (doi:10.1021/bi036049+)
